Test results published in patent publication US11478551B2, “Long-acting adrenomedullin derivative” (University of Miyazaki, priority 2015, dated 2022).
Marks after values point to notes of the source that are not given here. Positions of bridges follow the written chain, without caps; N, C: chain ends. GL‑2‑branched CH3O‑PEG (40k)‑CH2 = glycerol skeleton-containing 2-branched methoxy-PEG (40 kDa) attached via alkylamine (CH2) linkage; GL‑2‑branched CH3O‑PEG (40k)‑CO = glycerol skeleton-containing 2-branched methoxy-PEG (40 kDa) attached via urethane (CO) linkage

Molecular target: T1, AM receptor (Homo sapiens, UniProt O60895+Q16602)
T1 construct: expressed in transfected cells; host or cells: HEK293 cell line
T1 sequence (Q16602 23-461): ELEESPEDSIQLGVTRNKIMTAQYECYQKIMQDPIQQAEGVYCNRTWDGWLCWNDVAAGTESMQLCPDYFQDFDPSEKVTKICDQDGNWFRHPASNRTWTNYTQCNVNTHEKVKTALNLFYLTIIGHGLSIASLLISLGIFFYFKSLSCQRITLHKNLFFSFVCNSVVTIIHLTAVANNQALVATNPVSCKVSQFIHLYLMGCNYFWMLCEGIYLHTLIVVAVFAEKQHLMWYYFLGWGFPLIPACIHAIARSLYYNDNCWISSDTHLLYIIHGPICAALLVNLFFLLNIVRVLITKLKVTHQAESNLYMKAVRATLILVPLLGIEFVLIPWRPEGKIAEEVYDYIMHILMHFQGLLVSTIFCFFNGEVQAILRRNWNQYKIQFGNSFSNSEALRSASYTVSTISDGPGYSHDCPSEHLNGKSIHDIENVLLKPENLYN
T1 sequence (O60895 43-175): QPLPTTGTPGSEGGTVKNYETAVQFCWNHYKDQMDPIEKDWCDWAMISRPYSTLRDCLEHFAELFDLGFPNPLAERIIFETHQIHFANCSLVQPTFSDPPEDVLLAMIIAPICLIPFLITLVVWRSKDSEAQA
Test: Intracellular cAMP concentration-increasing effect in HEK293 cell line caused to express an AM receptor;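 note: cAMP inside confluent receptor-expressing cells quantified by ELISA after 15 min exposure to each peptide at 10^−8 mol/L alongside 0.5 mM IBMX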
Assay type: cell-based
Details: for Intracellular cAMP concentration-increasing effect (%): 10^−8 mol/L, 15 minutes, 0.5 mM IBMX; for influence of N-terminal deletion of the peptide moiety on the intracellular cAMP concentration-increasing effect: in words

[1] = percentage with respect to h.AM (1-52)
[2] = percentage with respect to h.AM (6-52)
[3] = percentage with respect to h.AM (16-52)

Substance	Intracellular cAMP concentration-increasing effect (%) [1] [%]	influence of N-terminal deletion of the peptide moiety on the intracellular cAMP concentration-increasing effect	further results
CH3O-PEG (5k)-(CH2)2—CH2-^αNH-(h.AM (6-52)) ({CH3O‑PEG (5k)‑(CH2)2—CH2}-NNFQGLRSFGCRFGTCTVQKLAHQIYQFTDKDKDNVAPRSKISPQGY-NH2; disulfide 11-16 (inferred); ends not checked) [Compound (18)]	90	suppressed the influence of N-terminal deletion	
CH3O-PEG (5k)-(CH2)2—CH2-^αNH-(h.AM (11-52)) ({CH3O‑PEG (5k)‑(CH2)2—CH2}-LRSFGCRFGTCTVQKLAHQIYQFTDKDKDNVAPRSKISPQGY-NH2; disulfide 6-11 (inferred); ends not checked) [Compound (19)]	80	suppressed the influence of N-terminal deletion	
CH3O-PEG (5k)-(CH2)2—CH2-^αNH-(h.AM (16-52)) ({CH3O‑PEG (5k)‑(CH2)2—CH2}-CRFGTCTVQKLAHQIYQFTDKDKDNVAPRSKISPQGY-NH2; disulfide 1-6 (inferred); ends not checked) [Compound (20)]	39	suppressed the influence of N-terminal deletion	
CH3O-PEG (5k)-(CH2)5-CO-^αNH-(h.AM (11-52)) ({CH3O‑PEG (5k)‑(CH2)5‑CO}-LRSFGCRFGTCTVQKLAHQIYQFTDKDKDNVAPRSKISPQGY-NH2; disulfide 6-11 (inferred); ends not checked) [Compound (16), amide linkage-type PEG (5k) adrenomedullin derivative, reference compound]		significantly decreased	Intracellular cAMP concentration-increasing effect (%) (percentage with respect to h.AM (11-52)): 1**^) %
CH3O-PEG (5k)-(CH2)5—CO-^αNH-(h.AM (6-52)) ({CH3O‑PEG (5k)‑(CH2)5—CO}-NNFQGLRSFGCRFGTCTVQKLAHQIYQFTDKDKDNVAPRSKISPQGY-NH2; disulfide 11-16 (inferred); ends not checked) [Compound (15), amide linkage-type PEG (5k) adrenomedullin derivative, reference compound]		significantly decreased	Intracellular cAMP concentration-increasing effect (%) [2]: 101*^) %
CH3O-PEG (5k)-(CH2)5—CO-^αNH-(h.AM (16-52)) ({CH3O‑PEG (5k)‑(CH2)5—CO}-CRFGTCTVQKLAHQIYQFTDKDKDNVAPRSKISPQGY-NH2; disulfide 1-6 (inferred); ends not checked) [Compound (17), amide linkage-type PEG (5k) adrenomedullin derivative, reference compound]		significantly decreased	Intracellular cAMP concentration-increasing effect (%) [3]: 9***^) %
CH3O-PEG (20k)-(CH2)2—CH2-^αNH-(h.AM (6-52)) ({CH3O‑PEG (20k)‑(CH2)2—CH2}-NNFQGLRSFGCRFGTCTVQKLAHQIYQFTDKDKDNVAPRSKISPQGY-NH2; disulfide 11-16 (inferred); ends not checked) [Compound (21)]		high intracellular cAMP concentration-increasing effect without the influence of the N-terminal deletion	Intracellular cAMP concentration-increasing effect (%) [2]: 98*^) %
CH3O-PEG (20k)-(CH2)2—CH2-^αNH-(h.AM (11-52)) ({CH3O‑PEG (20k)‑(CH2)2—CH2}-LRSFGCRFGTCTVQKLAHQIYQFTDKDKDNVAPRSKISPQGY-NH2; disulfide 6-11 (inferred); ends not checked) [Compound (22)]	97	high intracellular cAMP concentration-increasing effect without the influence of the N-terminal deletion	
CH3O-PEG (20k)-(CH2)2—CH2-^αNH-(h.AM (16-52)) ({CH3O‑PEG (20k)‑(CH2)2—CH2}-CRFGTCTVQKLAHQIYQFTDKDKDNVAPRSKISPQGY-NH2; disulfide 1-6 (inferred); ends not checked) [Compound (23)]	97	high intracellular cAMP concentration-increasing effect without the influence of the N-terminal deletion	
GL-2-branched CH3O-PEG (20k)-CO-^αNH-(h.AM (6-52)) ({GL‑2‑branched CH3O‑PEG (20k)‑CO}-NNFQGLRSFGCRFGTCTVQKLAHQIYQFTDKDKDNVAPRSKISPQGY-NH2; disulfide 11-16 (inferred); ends not checked) [Compound (30)]	99		
GL-2-branched CH3O-PEG (20k)-CO-^αNH-(h.AM (11-52)) ({GL‑2‑branched CH3O‑PEG (20k)‑CO}-LRSFGCRFGTCTVQKLAHQIYQFTDKDKDNVAPRSKISPQGY-NH2; disulfide 6-11 (inferred); ends not checked) [Compound (31)]	104		
GL-2-branched CH3O-PEG (20k)-CO-^αNH-(h.AM (16-52)) ({GL‑2‑branched CH3O‑PEG (20k)‑CO}-CRFGTCTVQKLAHQIYQFTDKDKDNVAPRSKISPQGY-NH2; disulfide 1-6 (inferred); ends not checked) [Compound (32)]	96		
GL-2-branched CH3O-PEG (40k)-CH2-^αNH-(h.AM (1-52)-Gly) [Compound (36)]			Intracellular cAMP concentration-increasing effect (%) (percentage with respect to h.AM (1-52)-Gly): 96****^) %
GL-2-branched CH3O-PEG (40k)-CH2-^αNH-(h.AM (6-52)) ({GL‑2‑branched CH3O‑PEG (40k)‑CH2}-NNFQGLRSFGCRFGTCTVQKLAHQIYQFTDKDKDNVAPRSKISPQGY-NH2; disulfide 11-16 (inferred); ends not checked) [Compound (29)]	77		
GL-2-branched CH3O-PEG (40k)-CH2-^αNH-(h.AM (16-52)) ({GL‑2‑branched CH3O‑PEG (40k)‑CH2}-CRFGTCTVQKLAHQIYQFTDKDKDNVAPRSKISPQGY-NH2; disulfide 1-6 (inferred); ends not checked) [Compound (24)]			Intracellular cAMP concentration-increasing effect (%) [3]: 93***^) %
GL-2-branched CH3O-PEG (40k)-CO-^αNH-(h.AM (16-52)) ({GL‑2‑branched CH3O‑PEG (40k)‑CO}-CRFGTCTVQKLAHQIYQFTDKDKDNVAPRSKISPQGY-NH2; disulfide 1-6 (inferred); ends not checked) [Compound (33)]	61		
GL-4-branched CH3O-PEG (40k)-CO-^αNH-(h.AM (6-52)) ({GL‑4‑branched CH3O‑PEG (40k)‑CO}-NNFQGLRSFGCRFGTCTVQKLAHQIYQFTDKDKDNVAPRSKISPQGY-NH2; disulfide 11-16 (inferred); ends not checked) [Compound (34)]	83		
